Positions count from the first letter of the chain named.
B1: 900725 (humanized anti-CD73 antigen-binding protein) (antibody, V domains shown)
VH: QVQLVQSGAEVKKPGASVKLSCKASGYTFTSYWIHWVRQAPGQGLEWIGMIHPNSGSTYYNEKFKGRATLTVDKSTSTAYMELSSLRSEDTAVYYCARYYGSDYEWYFDVWGQGTTVTVSS
VL: DIQMTQSPSSMSASVGDRVTITCKASQNVRTAVVWYQQKPGKAPKALIYLASNRHTGVPDRFSGSGSGTDFTLTISSLQPEDFATYFCLQHWNYPYTFGQGTKLEIK
B2: 900728 (humanized anti-CD73 antigen-binding protein) (antibody, V domains shown)
VH: B1 VH with L20V, K65Q, A68V, L70M
VL: B1 VL with M11L, F87Y
B3: 900567 (human-mouse chimeric anti-CD73 antigen-binding protein expressed from 124A9 variable regions) (antibody, V domains shown)
VH: QVQLQQPGAELVKPGASVKLSCKASGYTFTSYWIHWVKQRPGQGLDWIGMIHPNSGSTYYNEKFKSKATLTVDKSSSTAYMQLSSLTSEDSAVYYCARYYGSDYEWYFDVWGTGTTVTVSS
VL: DIVMTQSQKFMSTSVGDRVSITCKASQNVRTAVVWYQQNPGQSPKALIYLASNRHTGVPDRFTGSGSGTDFTLTISNVHSEDLADYFCLQHWNYPYTFGGGTKLEIK
B4: 900726 (humanized anti-CD73 antigen-binding protein) (antibody, V domains shown)
VH: B1 VH
VL: B1 VL with M11L, F87Y
B5: 900727 (humanized anti-CD73 antigen-binding protein) (antibody, V domains shown)
VH: B1 VH with L20V, N61A, E62Q, K65Q, A68V, L70I
VL: B1 VL

target: T1, CD73 on the cell surface of Calu6 cells (UniProt P21589 27-549, limits assumed); test: cell-based or functional assay
T1 sequence (looked up): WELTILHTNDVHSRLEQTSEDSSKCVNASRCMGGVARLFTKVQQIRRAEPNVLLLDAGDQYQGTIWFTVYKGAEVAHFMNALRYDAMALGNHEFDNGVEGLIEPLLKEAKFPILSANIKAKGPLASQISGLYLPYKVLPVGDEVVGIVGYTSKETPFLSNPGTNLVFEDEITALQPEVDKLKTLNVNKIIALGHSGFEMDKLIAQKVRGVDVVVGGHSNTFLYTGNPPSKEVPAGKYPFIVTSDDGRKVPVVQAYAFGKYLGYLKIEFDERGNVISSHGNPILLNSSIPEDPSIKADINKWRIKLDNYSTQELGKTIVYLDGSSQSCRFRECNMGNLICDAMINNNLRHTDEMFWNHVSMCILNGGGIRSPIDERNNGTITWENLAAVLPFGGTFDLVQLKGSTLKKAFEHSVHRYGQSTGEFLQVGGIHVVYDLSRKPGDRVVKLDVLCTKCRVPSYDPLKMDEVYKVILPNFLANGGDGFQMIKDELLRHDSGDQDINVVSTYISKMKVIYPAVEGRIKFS

Binder	Endocytosis rate (%)
B1	37.5
B2	33.9
B3	26.9

target: T2, Lysozyme from chicken egg (Sigma, L3790) (chicken, UniProt P00698 19-147); test: SPR, Biacore 8K, lysozyme immobilized on CM5 chip
T2 construct: Non-target molecule, amine-coupled to a CM5 chip
T2 sequence (P00698 19-147 limits assumed): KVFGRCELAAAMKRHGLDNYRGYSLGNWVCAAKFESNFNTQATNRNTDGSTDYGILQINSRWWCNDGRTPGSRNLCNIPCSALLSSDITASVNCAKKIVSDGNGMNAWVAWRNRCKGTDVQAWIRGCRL
Experimental: (§1) The non-specific adsorption effect of antigen-binding proteins and non-target molecules were determined by using the SPR method.
(§2) The series sensor chip CM5 (GE, #BR-1005-30) was equilibrated at room temperature for 20-30 min and then loaded into the Biacore 8K (GE) instrument. Lysozyme solution (Sigma, #L3790) from egg and trypsin inhibitor type 1-S (Sigma, #T-2327) from Glycine max were immobilized onto the CM5 chip using an amino coupling kit (GE, #BR-1000-50). The injection buffer was HBS-EP (1×) (GE, #BR-1006-69) and four equilibration cycles were set up. The polyclonal rabbit anti-lysozyme (ABcam, Ab391), anti-trypsin inhibitor antibodies (LifeSpan Biosciences, #LS-C76609), chimeric antibodies and humanized antibodies were diluted with equilibration buffer to 1000 nM, and the flow rate was set at 5 μL/min and injection channels 1, 2 and 3, Flow Cell 1 and 2 were selected. The association time was 10 min and the dissociation time was 10 min.

Binder	binding result
B1	no binding (tested: 1000 nM antibody; 20 RU)
B2	no binding (tested: 1000 nM antibody; 20 RU)
B4	no binding (tested: 1000 nM antibody; 20 RU)
B5	no binding (tested: 1000 nM antibody; 20 RU)
B3	no binding (tested: 1000 nM antibody; 20 RU)

target: T3, Trypsin inhibitor type 1-S from Glycine max (Sigma, T-2327) (Glycine max, UniProt P01070 25-205); test: SPR, Biacore 8K, trypsin inhibitor immobilized on CM5 chip
T3 construct: Non-target molecule, amine-coupled to a CM5 chip
T3 sequence (looked up): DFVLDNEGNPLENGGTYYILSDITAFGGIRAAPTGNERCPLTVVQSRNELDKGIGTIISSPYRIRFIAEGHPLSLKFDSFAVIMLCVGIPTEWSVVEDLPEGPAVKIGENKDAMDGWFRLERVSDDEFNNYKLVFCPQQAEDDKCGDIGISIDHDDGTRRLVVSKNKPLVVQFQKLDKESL
Experimental: as §1, §2

Binder	binding result
B1	no binding (tested: 1000 nM antibody; 20 RU)
B2	no binding (tested: 1000 nM antibody; 20 RU)
B4	no binding (tested: 1000 nM antibody; 20 RU)
B5	no binding (tested: 1000 nM antibody; 20 RU)
B3	no binding (tested: 1000 nM antibody; 20 RU)

target: T2, Lysozyme from chicken egg (Sigma, L3790); test: SPR, Biacore 8K, lysozyme immobilized on CM5, antibody at 1000 nM; buffer alone 16.9 RU
Experimental: as §1, §2
(§3) The PI of carboxymethyl dextran was 3.5, the PI of the trypsin inhibitor was 4.5, and the PI of lysozyme was 11.3. In the HBS-EP buffer solution with a pH of 7.4, carboxymethyl dextran and the trypsin inhibitor had strong negative charges, and lysozyme had strong positive charges.

Binder	non-specific binding amount (RU)
B1	20.3
B2	20.2
B4	17.7
B5	17.6
B3	15.8

target: T4, recombinant human CD73 protein (ACRO Biosystems, item No. CD3-H52H7) (human, UniProt P21589 27-547); test: SPR, Biacore T200, antibody captured on protein A chip, human CD73 as analyte, 1:1 model
T4 construct: also called recombinant CD73 protein
T4 sequence (looked up): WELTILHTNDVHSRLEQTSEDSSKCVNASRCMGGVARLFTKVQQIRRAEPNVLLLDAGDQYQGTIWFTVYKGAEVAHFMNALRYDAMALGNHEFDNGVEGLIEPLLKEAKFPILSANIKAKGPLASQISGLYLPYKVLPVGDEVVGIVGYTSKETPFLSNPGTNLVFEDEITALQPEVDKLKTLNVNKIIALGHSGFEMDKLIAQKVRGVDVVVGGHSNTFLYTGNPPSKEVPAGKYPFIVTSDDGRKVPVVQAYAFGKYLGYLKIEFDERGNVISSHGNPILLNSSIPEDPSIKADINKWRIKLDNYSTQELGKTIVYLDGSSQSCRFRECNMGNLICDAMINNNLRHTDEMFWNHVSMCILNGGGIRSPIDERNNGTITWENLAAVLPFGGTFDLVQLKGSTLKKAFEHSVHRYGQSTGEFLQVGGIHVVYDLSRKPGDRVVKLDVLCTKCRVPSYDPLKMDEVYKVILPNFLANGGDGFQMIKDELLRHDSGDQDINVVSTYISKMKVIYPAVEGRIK
Experimental: In the tests, the assay buffer HBS-EP+ (pH 7.4) and the protein A chip (manufacturer: GE, item No.: 29-1275-56) were used.
The temperatures of a sample chamber and a flow path were set at 25° C., and the protein A chip respectively captured chimeric antibodies or humanized antibodies as ligands and immobilized at about 100 RU. […] After association for 120 s at a flow rate of 30 μL/min, dissociation was carried out for 600 s. Regeneration was then carried out for 60 s with 10 mM Glycine (pH 1.5) at a flow rate of 50 μL/min to implement multi-cycle kinetic detection. A 1:1 binding model was selected for fitting analysis in a Fit local mode to acquire the association rate constant (ka), dissociation rate constant (kd) and dissociation equilibrium rate constant (KD).

Binder	Kd [nM]	koff [s⁻¹]	kon [M⁻¹ s⁻¹]
B1	0.201	0.000126	626000
B2	0.377	0.000317	841000
B4	2.49	0.00124	496000
B5	0.789	0.000494	626000
B3	0.652	0.00049	752000

target: T3, Trypsin inhibitor type 1-S from Glycine …; test: SPR, Biacore 8K, trypsin inhibitor immobilized on CM5, antibody at 1000 nM; buffer alone 13.9 RU
Experimental: as §1, §2, §3

Binder	non-specific binding amount (RU)
B1	12.6
B2	13.5
B4	15.4
B5	11.6
B3	12.8
